Measurements reported in IntAct's records for PubMed 15208391.

B1: Cullin-1 (Arabidopsis thaliana (Mouse-ear cress)), Q94AH6 (parent)
chain: MERKTIDLEQGWDYMQTGITKLKRILEGLNEPAFDSEQYMMLYTTIYNMCTQKPPHDYSQQLYDKYREAFEEYINSTVLPALREKHDEFMLRELFKRWSNHKVMVRWLSRFFYYLDRYFIARRSLPPLNEVGLTCFRDLVYNELHSKVKQAVIALVDKEREGEQIDRALLKNVLDIYVEIGMGQMERYEEDFESFMLQDTSSYYSRKASSWIQEDSCPDYMLKSEECLKKERERVAHYLHSSSEPKLVEKVQHELLVVFASQLLEKEHSGCRALLRDDKVDDLSRMYRLYHKILRGLEPVANIFKQHVTAEGNALVQQAEDTATNQVANTASVQEQVLIRKVIELHDKYMVYVTECFQNHTLFHKALKEAFEIFCNKTVAGSSSAELLATFCDNILKKGGSEKLSDEAIEDTLEKVVKLLAYISDKDLFAEFYRKKLARRLLFDRSANDDHERSILTKLKQQCGGQFTSKMEGMVTDLTLARENQNSFEDYLGSNPAANPGIDLTVTVLTTGFWPSYKSFDINLPSEMIKCVEVFKGFYETKTKHRKLTWIYSLGTCHINGKFDQKAIELIVSTYQAAVLLLFNTTDKLSYTEILAQLNLSHEDLVRLLHSLSCAKYKILLKEPNTKTVSQNDAFEFNSKFTDRMRRIKIPLPPVDERKKVVEDVDKDRRYAIDAAIVRIMKSRKVLGHQQLVSECVEQLSRMFKPDIKAIKKRMEDLITRDYLERDKENPNMFRYLA
partner: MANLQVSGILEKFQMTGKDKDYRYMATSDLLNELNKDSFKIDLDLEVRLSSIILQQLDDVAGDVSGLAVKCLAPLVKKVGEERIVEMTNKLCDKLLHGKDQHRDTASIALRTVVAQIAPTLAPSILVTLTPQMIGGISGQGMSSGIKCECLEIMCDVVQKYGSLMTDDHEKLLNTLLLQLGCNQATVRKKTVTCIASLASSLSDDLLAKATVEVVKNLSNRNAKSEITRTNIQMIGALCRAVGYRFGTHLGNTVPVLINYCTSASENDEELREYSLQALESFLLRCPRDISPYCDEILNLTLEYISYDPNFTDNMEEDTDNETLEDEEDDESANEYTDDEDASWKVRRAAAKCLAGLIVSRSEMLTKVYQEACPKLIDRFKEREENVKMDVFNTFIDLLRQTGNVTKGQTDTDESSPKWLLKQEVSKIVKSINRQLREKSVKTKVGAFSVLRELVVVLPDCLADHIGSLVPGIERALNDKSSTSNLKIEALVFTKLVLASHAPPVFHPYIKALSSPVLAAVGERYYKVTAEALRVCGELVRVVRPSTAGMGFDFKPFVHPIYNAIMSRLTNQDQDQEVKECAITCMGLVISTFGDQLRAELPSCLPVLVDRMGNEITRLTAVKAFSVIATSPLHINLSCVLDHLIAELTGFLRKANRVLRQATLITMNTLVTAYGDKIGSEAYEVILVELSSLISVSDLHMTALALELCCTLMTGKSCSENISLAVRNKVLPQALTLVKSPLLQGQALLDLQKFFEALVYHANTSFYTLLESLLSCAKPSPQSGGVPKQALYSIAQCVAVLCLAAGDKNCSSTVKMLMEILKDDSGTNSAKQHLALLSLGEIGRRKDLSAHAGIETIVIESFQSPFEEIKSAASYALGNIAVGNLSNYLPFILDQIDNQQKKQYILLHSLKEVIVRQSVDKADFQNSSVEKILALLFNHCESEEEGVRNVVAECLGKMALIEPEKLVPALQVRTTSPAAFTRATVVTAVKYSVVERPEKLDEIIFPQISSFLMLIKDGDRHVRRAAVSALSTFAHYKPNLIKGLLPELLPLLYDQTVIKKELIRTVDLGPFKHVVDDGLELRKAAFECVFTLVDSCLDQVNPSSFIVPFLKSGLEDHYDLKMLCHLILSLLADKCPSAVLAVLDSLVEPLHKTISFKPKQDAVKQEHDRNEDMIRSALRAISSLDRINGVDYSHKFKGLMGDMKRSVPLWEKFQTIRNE

Variants of: B1
Settings: with cand1_arath CAND1, Q8L5Y6

Variant	effect of a mutation on the interaction
K682R	increasing interaction strength
